Source: patent US20150197564A1 (Regeneron, published 2015)

Assays:
[1] = molecular target: T1, mANGPTL3(17-455)-His (Mus musculus, UniProt Q9R182 17-455); assay: cell-based or functional assay
T1 sequence: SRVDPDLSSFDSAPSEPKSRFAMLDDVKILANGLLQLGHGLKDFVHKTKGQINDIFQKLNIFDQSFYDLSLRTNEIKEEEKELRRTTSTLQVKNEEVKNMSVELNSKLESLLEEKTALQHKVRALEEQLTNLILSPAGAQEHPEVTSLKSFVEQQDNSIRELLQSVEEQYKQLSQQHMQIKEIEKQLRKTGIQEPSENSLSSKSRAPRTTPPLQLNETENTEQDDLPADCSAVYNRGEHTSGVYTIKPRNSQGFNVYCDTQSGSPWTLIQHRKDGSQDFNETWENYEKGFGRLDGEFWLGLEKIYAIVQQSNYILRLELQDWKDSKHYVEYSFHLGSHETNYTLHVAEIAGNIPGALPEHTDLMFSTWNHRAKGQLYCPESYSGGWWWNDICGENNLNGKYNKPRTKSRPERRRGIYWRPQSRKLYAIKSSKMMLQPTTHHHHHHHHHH

[2] = molecular target: T2, hANGPTL3(17-169)-mFc (human); assay: cell-based or functional assay
T2 chain: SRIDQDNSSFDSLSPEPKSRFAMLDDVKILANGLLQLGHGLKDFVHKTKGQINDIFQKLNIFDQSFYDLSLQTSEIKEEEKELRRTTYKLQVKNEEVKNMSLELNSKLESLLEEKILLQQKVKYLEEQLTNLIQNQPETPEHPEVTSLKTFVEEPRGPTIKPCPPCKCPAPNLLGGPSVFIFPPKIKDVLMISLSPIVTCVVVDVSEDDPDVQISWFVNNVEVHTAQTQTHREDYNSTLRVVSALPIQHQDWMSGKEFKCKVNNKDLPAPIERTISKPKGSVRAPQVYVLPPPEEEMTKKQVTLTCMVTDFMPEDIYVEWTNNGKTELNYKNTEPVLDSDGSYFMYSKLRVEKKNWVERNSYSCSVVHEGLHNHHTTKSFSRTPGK

[3] = molecular target: T3, hANGPTL3(17-170)-His (human, UniProt Q9Y5C1 17-170); assay: SPR Biacore, antigen captured, 37C, pH 7.2, PBSP
T3 construct: also called N-terminal coiled-coil domain of hANGPTL3 with a C-terminal hexahistidine tag; Human ANGPTL3 (17-170)-His
T3 sequence: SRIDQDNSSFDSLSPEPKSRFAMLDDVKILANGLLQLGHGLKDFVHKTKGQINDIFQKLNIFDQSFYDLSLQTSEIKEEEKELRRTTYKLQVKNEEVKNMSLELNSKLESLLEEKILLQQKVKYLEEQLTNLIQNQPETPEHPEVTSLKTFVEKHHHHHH
Procedure: (§1) All kinetic binding experiments were performed at 25° C. or 37° C. on a BIACORE™ T200 label-free molecular interaction instrument (GE Healthcare) using a CM5 sensor chip. Briefly, an antigen capture surface was generated by covalently coupling either an anti-mouse IgG-specific antibody (anti-mFc; GE Healthcare; catalog #BR-1008-38) or an anti-pentahistidine-specific antibody (Qiagen; catalog #34660) to the surface of a CM5 sensor chip using a standard amine coupling method.

[4] = molecular target: T4, MfANGPTL3(17-170)-mmH (Macaca fascicularis); assay: SPR Biacore, antigen captured, 37C, pH 7.2, PBSP
T4 construct: also called N-terminal coiled-coil domain of ANGPTL3 from Macaca fascicularis with myc-myc-hexahistidine tag; Monkey ANGPTL3 (17-170)-mmH
T4 chain: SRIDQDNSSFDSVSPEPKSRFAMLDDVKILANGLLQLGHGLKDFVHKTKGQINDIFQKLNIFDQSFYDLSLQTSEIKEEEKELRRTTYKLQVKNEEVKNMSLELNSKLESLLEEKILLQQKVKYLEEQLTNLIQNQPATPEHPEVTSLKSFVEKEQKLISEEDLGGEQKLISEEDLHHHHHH
Procedure: as §1

[5] = molecular target: T5, hANGPTL3(17-460)-His (human, UniProt Q9Y5C1 17-460); assay: SPR Biacore, antigen captured, 37C, pH 7.2, PBSP
T5 construct: Bought protein (R&D Systems); also called full-length mature human ANGPTL3 with a C-terminal decahistidine tag; Human ANGPTL3 (17-460)-His
T5 sequence: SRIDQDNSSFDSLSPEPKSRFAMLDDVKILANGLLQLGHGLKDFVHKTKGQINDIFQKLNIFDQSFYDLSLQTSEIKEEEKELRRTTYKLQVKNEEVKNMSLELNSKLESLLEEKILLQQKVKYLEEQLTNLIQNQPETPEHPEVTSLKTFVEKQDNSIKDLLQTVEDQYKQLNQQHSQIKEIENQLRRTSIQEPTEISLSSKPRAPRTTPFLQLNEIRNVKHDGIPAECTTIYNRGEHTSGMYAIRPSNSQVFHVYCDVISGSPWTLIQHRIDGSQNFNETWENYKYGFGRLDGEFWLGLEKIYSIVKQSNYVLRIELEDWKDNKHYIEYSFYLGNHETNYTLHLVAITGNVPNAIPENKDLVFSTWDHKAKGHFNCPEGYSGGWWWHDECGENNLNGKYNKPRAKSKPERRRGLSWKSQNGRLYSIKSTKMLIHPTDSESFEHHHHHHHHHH
Procedure: as §1

[6] = molecular target: T3, hANGPTL3(17-170)-His; assay: SPR Biacore, antigen captured, 25C, pH 5.75, PBSP
Procedure: as §1

[7] = molecular target: T4, MfANGPTL3(17-170)-mmH; assay: SPR Biacore, antigen captured, 25C, pH 5.75, PBSP
Procedure: as §1

[8] = molecular target: T5, hANGPTL3(17-460)-His; assay: SPR Biacore, antigen captured, 25C, pH 5.75, PBSP
Procedure: as §1

B1: H4H1276S (antibody, IgG4, V domains shown)
VH: EVQLVESGGGVIQPGGSLRLSCAASGFTFDDYAMNWVRQGPGKGLEWVSAISGDGGSTYYADSVKGRFTISRDNSKNSLYLQMNSLRAEDTAFFYCAKDLRNTIFGVVIPDAFDIWGQGTMVTVSS
VL: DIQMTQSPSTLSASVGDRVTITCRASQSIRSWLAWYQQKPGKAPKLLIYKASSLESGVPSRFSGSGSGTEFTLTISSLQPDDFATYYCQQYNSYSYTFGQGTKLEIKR
**Q.** Which results are given for B1?
**A.** IC50 (nM), LPL bioassay, 80 nM constant ANGPTL3 [1]: 14 nM; IC50 (nM), LPL bioassay, 80 nM constant ANGPTL3 [2]: 21 nM; Kd [3]: 1.74 nM; koff [3]: 0.00273 s⁻¹; kon [3]: 1.57e+06 M⁻¹ s⁻¹; t1/2 [3]: 4.2 min; Kd [4]: 0.7 nM; koff [4]: 0.00136 s⁻¹; kon [4]: 1.94e+06 M⁻¹ s⁻¹; t1/2 [4]: 8.5 min; Kd [5]: 1.76 nM; koff [5]: 0.00118 s⁻¹; kon [5]: 667000 M⁻¹ s⁻¹; t1/2 [5]: 9.8 min; Kd [6]: 24 nM; koff [6]: 0.00672 s⁻¹; kon [6]: 280000 M⁻¹ s⁻¹; t1/2 [6]: 1.7 min; Kd [7]: 21 nM; koff [7]: 0.00432 s⁻¹; kon [7]: 206000 M⁻¹ s⁻¹; t1/2 [7]: 2.7 min; Kd [8]: 67.5 nM; koff [8]: 0.00494 s⁻¹; kon [8]: 73200 M⁻¹ s⁻¹; t1/2 [8]: 2.3 min
